# Experimental data taken from IntAct's records for PubMed 17350572.
# B1: Programmed cell death 6-interacting protein (Homo sapiens), Q8WUM4 (parent)
# chain: MATFISVQLKKTSEVDLAKPLVKFIQQTYPSGGEEQAQYCRAAEELSKLRRAAVGRPLDKHEGALETLLRYYDQICSIEPKFPFSENQICLTFTWKDAFDKGSLFGGSVKLALASLGYEKSCVLFNCAALASQIAAEQNLDNDEGLKIAAKHYQFASGAFLHIKETVLSALSREPTVDISPDTVGTLSLIMLAQAQEVFFLKATRDKMKDAIIAKLANQAADYFGDAFKQCQYKDTLPKEVFPVLAAKHCIMQANAEYHQSILAKQQKKFGEEIARLQHAAELIKTVASRYDEYVNVKDFSDKINRALAAAKKDNDFIYHDRVPDLKDLDPIGKATLVKSTPVNVPISQKFTDLFEKMVPVSVQQSLAAYNQRKADLVNRSIAQMREATTLANGVLASLNLPAAIEDVSGDTVPQSILTKSRSVIEQGGIQTVDQLIKELPELLQRNREILDESLRLLDEEEATDNDLRAKFKERWQRTPSNELYKPLRAEGTNFRTVLDKAVQADGQVKECYQSHRDTIVLLCKPEPELNAAIPSANPAKTMQGSEVVNVLKSLLSNLDEVKKEREGLENDLKSVNFDMTSKFLTALAQDGVINEEALSVTELDRVYGGLTTKVQESLKKQEGLLKNIQVSHQEFSKMKQSNNEANLREEVLKNLATAYDNFVELVANLKEGTKFYNELTEILVRFQNKCSDIVFARKTERDELLKDLQQSIAREPSAPSIPTPAYQSSPAGGHAPTPPTPAPRTMPPTKPQPPARPPPPVLPANRAPSATAPSPVGAGTAAPAPSQTPGSAPPPQAQGPPYPTYPGYPGYCQMPMPMGYNPYAYGQYNMPYPPVYHQSPGQAPYPGPQQPSYPFPQPPQQSYYPQQ
# partner: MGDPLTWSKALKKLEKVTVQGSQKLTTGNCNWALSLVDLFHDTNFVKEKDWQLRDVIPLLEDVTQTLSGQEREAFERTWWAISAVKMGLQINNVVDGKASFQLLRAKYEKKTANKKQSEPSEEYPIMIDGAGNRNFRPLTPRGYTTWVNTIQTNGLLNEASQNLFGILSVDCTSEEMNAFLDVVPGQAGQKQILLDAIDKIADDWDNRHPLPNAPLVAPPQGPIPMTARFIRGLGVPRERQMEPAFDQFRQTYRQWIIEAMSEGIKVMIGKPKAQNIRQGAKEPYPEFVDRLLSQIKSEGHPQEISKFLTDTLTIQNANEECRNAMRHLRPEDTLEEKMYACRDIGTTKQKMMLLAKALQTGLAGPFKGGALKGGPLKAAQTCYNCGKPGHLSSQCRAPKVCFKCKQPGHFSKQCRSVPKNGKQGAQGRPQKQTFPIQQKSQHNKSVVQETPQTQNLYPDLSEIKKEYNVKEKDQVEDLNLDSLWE
# B2: Programmed cell death 6-interacting protein (Homo sapiens), Q8WUM4 (parent)
# chain: B1 chain
# partner: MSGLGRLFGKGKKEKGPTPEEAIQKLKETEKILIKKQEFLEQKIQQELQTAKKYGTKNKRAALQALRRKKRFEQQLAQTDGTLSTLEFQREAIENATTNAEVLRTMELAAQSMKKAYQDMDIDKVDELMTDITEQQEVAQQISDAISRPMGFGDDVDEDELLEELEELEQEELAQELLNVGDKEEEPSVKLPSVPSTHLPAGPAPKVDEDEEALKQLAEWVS
# B3: Programmed cell death 6-interacting protein (Homo sapiens), Q8WUM4 (parent)
# chain: B1 chain
# B4: Gag polyprotein (Equine infectious anemia virus (isolate 1369) (EIAV)), P69730 (parent)
# chain: B1 partner
# Variants of: B1
# Settings: with gag_eiav9 gag
row,Variant,effect of a mutation on the interaction
1,I683D,decreasing interaction
2,V498D,decreasing interaction
3,F676D,disrupting interaction

# Variants of: B2
# Settings: with chm4a_human CHMP4A
row,Variant,effect of a mutation on the interaction
1,I212D,disrupting interaction

# Variants of: B3
# Settings: with gag_hv1b1 gag
row,Variant,effect of a mutation on the interaction
1,I683D,decreasing interaction
2,F676D,disrupting interaction
3,V498D,disrupting interaction

# Variants of: B3
# Settings: with ts101_human TSG101, Q99816
# ts101_human TSG101, Q99816, sequence (Q99816 whole entry): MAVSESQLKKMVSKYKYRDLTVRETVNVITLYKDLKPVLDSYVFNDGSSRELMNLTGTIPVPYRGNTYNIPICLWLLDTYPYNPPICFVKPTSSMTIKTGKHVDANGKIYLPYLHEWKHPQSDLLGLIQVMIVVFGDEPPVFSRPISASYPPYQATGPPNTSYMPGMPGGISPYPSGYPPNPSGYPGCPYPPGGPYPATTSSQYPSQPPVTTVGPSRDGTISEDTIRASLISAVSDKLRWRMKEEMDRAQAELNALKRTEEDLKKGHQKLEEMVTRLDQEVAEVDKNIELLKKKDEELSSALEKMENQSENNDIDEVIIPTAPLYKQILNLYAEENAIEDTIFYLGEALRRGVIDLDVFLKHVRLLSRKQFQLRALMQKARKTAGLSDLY
row,Variant,effect of a mutation on the interaction
1,P720L,disrupting interaction

# Variants of: B3
# Settings: with sh3g2_human SH3GL2, Q99962
# sh3g2_human SH3GL2, Q99962, sequence (Q99962 whole entry): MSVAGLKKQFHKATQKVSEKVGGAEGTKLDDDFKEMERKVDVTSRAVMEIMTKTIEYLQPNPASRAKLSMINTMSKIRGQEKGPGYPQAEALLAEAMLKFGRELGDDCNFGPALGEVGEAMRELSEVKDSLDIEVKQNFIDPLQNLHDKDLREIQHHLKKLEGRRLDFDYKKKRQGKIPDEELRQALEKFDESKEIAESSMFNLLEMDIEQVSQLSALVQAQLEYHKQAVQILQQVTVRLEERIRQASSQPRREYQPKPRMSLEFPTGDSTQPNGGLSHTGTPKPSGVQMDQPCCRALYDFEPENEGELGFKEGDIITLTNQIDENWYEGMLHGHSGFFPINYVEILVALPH
row,Variant,effect of a mutation on the interaction
1,R757A;P758A,decreasing interaction

# Variants of: B4
# Settings: with pdc6i_human PDCD6IP
row,Variant,effect of a mutation on the interaction
1,Y458S;P459R,decreasing interaction
